Laboratory results as given in patent US20220017623A1, “TREATMENT OF CANCER USING A CEA CD3 BISPECIFIC ANTIBODY AND A WNT SIGNALING INHIBITOR” (Hoffmann-La Roche Inc., priority 2019, published 2022).

Target: Carcinoembryonic antigen (CEA) (human) (UniProt P06731)
Experiment: cell-based or functional assay

Carcinoembryonic antigen (CEA) (human), sequence (P06731 35-702): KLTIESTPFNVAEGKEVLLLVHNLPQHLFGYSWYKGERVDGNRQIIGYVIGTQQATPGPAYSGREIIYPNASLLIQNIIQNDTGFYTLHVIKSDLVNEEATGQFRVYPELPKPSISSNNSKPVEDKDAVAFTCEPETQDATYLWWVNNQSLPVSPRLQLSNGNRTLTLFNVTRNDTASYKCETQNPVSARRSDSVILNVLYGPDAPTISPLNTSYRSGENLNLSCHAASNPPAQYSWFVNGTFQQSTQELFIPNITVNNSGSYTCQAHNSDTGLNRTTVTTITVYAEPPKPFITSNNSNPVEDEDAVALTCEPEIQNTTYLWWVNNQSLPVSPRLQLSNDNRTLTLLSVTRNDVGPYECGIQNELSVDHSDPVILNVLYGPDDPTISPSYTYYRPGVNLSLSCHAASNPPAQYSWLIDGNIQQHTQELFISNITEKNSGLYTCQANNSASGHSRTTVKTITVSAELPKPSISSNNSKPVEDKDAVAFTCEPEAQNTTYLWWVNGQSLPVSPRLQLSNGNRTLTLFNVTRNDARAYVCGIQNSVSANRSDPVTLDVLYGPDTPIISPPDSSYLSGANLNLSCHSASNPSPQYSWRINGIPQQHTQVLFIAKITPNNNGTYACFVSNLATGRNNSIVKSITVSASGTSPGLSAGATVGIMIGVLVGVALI

Pearson correlation of growth reduction with the fraction of CEAhi cancer cells in each PDO: 0.915 r
Substance: cibisatamab (bispecific antibody)
